Assay results: patent publication US20180051071A1

What was measured:
Assay in all cases: sandwich EIA: 82E1 capture, HRP-labelled IBL-102; antigen 4000 pg/mL read on the E22P-Aβ42 standard curve
[1] = molecular target: D23P-Aβ42 (Homo sapiens (Human)) (UniProt P05067)
[2] = molecular target: G25P-Aβ42 (Homo sapiens (Human)) (UniProt P05067)
[3] = molecular target: E22V-Aβ42 (Homo sapiens (Human)) (UniProt P05067)
[4] = molecular target: A21P-Aβ42 (Homo sapiens (Human)) (UniProt P05067)
[5] = molecular target: V24P-Aβ42 (Homo sapiens (Human)) (UniProt P05067)
[6] = molecular target: M35P-Aβ42 (Homo sapiens (Human)) (UniProt P05067)

B1: IBL-102 antibody (antibody, mouse IgG1, kappa, V domains shown)
VH: EVQLQQSGPELVKPGASVKIFCKASGYTFTDYNMDWVKQSHGKRLEWIGDINPNTGVTIDNPKFKGKATLTVDESSSTVYMELRSLSSEDTAVYYCARLPDNYVMDYWGQGTSVTVSA
VL: DVVMTQTPLSLPVSLGDQASISCRCSQSLVHRNGNTNLHWYLQKSGQSPKLLIYKVSNRFSGVPDRFSGSGSGTDFTLKISRVEAEDLGVYFCSQSTYVPLTFGVGTKLELKR
- cross-reaction rate [1]: 0.5%
- cross-reaction rate [2]: 0.53%
- cross-reaction rate [3]: 0.28%
- cross-reaction rate [4]: 0.27%
- cross-reaction rate [5]: 0.33%
- cross-reaction rate [6]: 0.68%
